Assay [1] concerns the target T1, recombinant human CD28 (R&D systems, Cat. No. 342-CD; human CD28-Ig chimera) (human, UniProt P10747 19-152).
T1 construct: extracellular domain; also called rhCD28; recombinant human sCD28; not shown: Ig (Fc) portion of the bought chimera; not specified
The assay is described as follows: direct ELISA, recombinant human sCD28 on maxisorp plates; reference CD28.2.

Assay [2] deals with T1, recombinant human CD28 (R&D systems, …). Briefly: direct ELISA, recombinant human sCD28 on maxisorp plates.
Assay [3] addresses T2, BSA conjugated CD28 stalk region dimeric peptide (human, not fully specified (C-terminus); also: hydrazide-terminated peptide conjugated to S-4FB modified BSA, dimeric peptide).
T2 construct: Dimeric peptide; dimerization confirmed on a non-denaturing gel; also called stalk region peptide; dimeric human CD28 stalk region peptide
T2 peptide: GKHLCPSPLFPGPSKPK
Briefly: ELISA, antigen on plate, serial dilution of antibody.

Assay [4] has as its target Irrelevant control (Table 1). Briefly: ELISA, same clone on the irrelevant control; unit not given.

No end group written: not given here.

B1: Antibody #1 (antibody, mouse IgG1, kappa, V domains shown)
VH: QIQLVQSGPELKKPGETVKISCKASGYTLTNYGMNWVKQAPGKGLKWMGWINTYTGKPTYVDDFKGRFAFSLETSASTAYLQINNLKNEDTATYFCARGDANQQFAYWGQGTLVTVSA
VL: DIKMTQSPSSMYASLGERVTITCKASQDINSYLSWFQQKPGKSPKTLIYRANRLVDGVPSRFSGSGSGQDYSLTISSLEYDDMGIYYCLQYDEFPPTFGAGTKLELKR
On to B1, for which the “fold detection against CD28.2” value in assay [1] was about 10 fold.

B2: Antibody #2 (antibody, mouse IgG2b, kappa, V domains shown)
VH: QVQLQQSGAELARPGASVKLSCKASGYTFTSYWMQWIKKRPGQGLEWIGAIYPGDGDTRYTQKFKGKATLTADKSSTTAYMQLSSLASEDSAVYFCARNYRYSSFGYWGQGTLVTVSA
VL: DIVMTQSPSSLTVTAGEKVTLSCKSSQSLLNSGNQKNYLTWYQQKPGQPPQLLIYWASTRESGVPDRFTGSGSGTDFTLTISSVQAEDLAVYYCQSDYSYPLTFGAGTKLELKR
Turning to B2, in assay [2], the binding result is listed as “binds”.

B3: clone M9 (antibody, V domains shown)
VH: DVKLVESGGGLVKLGGSLKLSCVASGFTFSSYYMSWVRQTPEKRLEWVATISDGGDNTYYAGTVTGRFTISRDFAKNTLYLQMNSLTSEDTAVYYCARIHWPYYFDSWGQGTTLTVSS
VL: QFVLSQSPAILSASPGEMLTMTCRASSSVSYMNWYQQKPGSSPKPWIYATSDLASGVPARFSGSGSGTSYSLTISRVEAEDAATYYCQQWSSHPPTFGGGTKLEIR
notes: also called 4G07; antibody M9
For the molecule B3, the binding result in assay [3] is “binds”. In assay [4], this molecule showed an ELISA signal on irrelevant control of 0.06.

For the origin of these results see patent US20210047411A1 (BIOND BIOLOGICS, published 2021).
